Test results from US20240293576A1.

Columns and labels:
HIV virus pAD-8 (HIV-1) = assay: cell-based or functional assay
HIV virus pNL4-3 (HIV-1) = assay: cell-based or functional assay

| Substance | AD-8 RLU (TZMbl luciferase, neutralisation by supernatant) (HIV virus pAD-8 (HIV-1)) [RLU] | pNL4-3 RLU (TZMbl luciferase, neutralisation by supernatant) (HIV virus pNL4-3 (HIV-1)) [RLU] |
| --- | --- | --- |
| anti-HIV broad-spectrum neutralizing antibody 10E8V4-5R+100cF | 976000 | 121000 |
| anti-HIV broad-spectrum neutralizing antibody PGT128 | 147000 | 474000 |
